According to the RNAGym collection of RNA variant scans (doi:10.1073/pnas.2313332121):

B1: TPR t1 (parent)
chain: GACCAAUCUGCCCUCAGAGCUCGAGAACAUCUUCGGAUGCAGAGGAGGCAGGCUUCGGUGGCGCGAUAGCGCCAACGUCCUCAACCUCCAAUGCAUCCCACCACAUGAUGAUGCCUGAAGAGCCUUGGUUUUUUG

Variants of: B1
Assay: polymerase ribozyme fitness, log enrichment relative to wild type (log ratio); higher = more active; in vitro selection for triplet polymerase activity
Method in brief: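 For each subunit of a heterodimeric triplet polymerase ribozyme, a mutant library was built by PCR and transcribed, then taken through a single in vitro selection round in triplicate. Selection involved annealing to a biotinylated primer, the partner subunit and triplets, incubation frozen at −7 °C, gel excision of extended constructs, capture on streptavidin beads and RT-PCR. Genotypes were retained after Illumina sequencing of inputs and outputs only with ≥10 input reads and ≥1 read in each output. Fitness is defined as the logarithm of a genotype's enrichment relative to wild-type enrichment, using inverse-variance-weighted averages across replicates, with the logarithm taken to base 2.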

| Variant | polymerase ribozyme fitness (log ratio) |
| --- | --- |
| G69C C97U | -2.66 |
| A68C A84U U112G G117C | -7.28 |
| A66U A83U | -1.4 |
| C70U U87C | 0.738 |
| G71C C114U | -3.55 |
| G71C C114A | -2.75 |
| G69U U81A | 0.151 |
| A68G U125A | -3.61 |
| A68G G69C C82U G113A G128U | -4.89 |
| G69C C72U | -0.189 |
| A66U G93C C114G | -5.41 |
| C70U C80U A90C C98U | -5.92 |
| G71A A84C | -0.48 |
| A68G C82U | -2.87 |
| C70U U78G U116G | -2.23 |
| G71A U92A A121U | -2.31 |
| G71A A83G U133G | -2.31 |
| A66G G127U | -1.49 |
| C70A C123A | -0.557 |
| G69U C115A G120A | 0.825 |
| C70U C72U A95C A111U | -5.58 |
| C70U C80U U96A U106C | -4.08 |
| C70U G113A U131A | -0.868 |
| C70U C85G U87A A111G G120A | -5.35 |

| Variant | polymerase ribozyme fitness (log ratio) |
| --- | --- |
| G69A G117A | -3.78 |
| G69A G117C | -5.44 |
| G69A C73U U96G | -3.55 |
| G71C C102U | -3.11 |
| C70U C72A C85A | -2.03 |
| U67A G69U | -5.08 |
| A66G C82U C88G C124U | -0.202 |
| G71C U133A | -0.636 |
| G71A G127A | -2.33 |
| C70A U106A | -1.51 |
| G69U C114A | -0.78 |
| C70G C85A | -4.06 |
| C70A G113U | -2.82 |
| C70A G113A | -2.41 |
| C70A C124U | -0.369 |
| C70A C124A | -0.104 |
| G69U C72A | -2.5 |
| A68G G122A | -2.55 |
| C70U A103U G120C U131C | -5.74 |
| C70U C73A C102U A118U | -2.08 |
| C70U A121C | 1.13 |
| C70U U112A | 0.732 |
| G71C G113A G128A | -3.16 |
| C70U G117C | -4.24 |

| Variant | polymerase ribozyme fitness (log ratio) |
| --- | --- |
| G69U G117A | -0.296 |
| C70U C76U U106C U133G | -1.64 |
| C70U A74U C86A | -4.13 |
| G71A G120U | 0.349 |
| G69U U112G C124A U133C | 2.87 |
| G69U C82A C104U | 0.152 |
| G69U C76U G93C U132C | -2.06 |
| G71C C124G G128U | -1.25 |
| C70A G71C | -4.68 |
| G71A C89G | -2.03 |
| C70G G117C | -5.07 |
| U67C G69A U81C C104A G110C U112C | -8.47 |
| G71A U116A | -3.85 |
| G71A U116C | -1.26 |
| G69U G110A U125A G127A | -0.849 |
| G71A A119G | -0.102 |
| G69U U116A | -1.65 |
| A66U C72U C115G | -2.47 |
| A66U A84U G110C U130C | -5.62 |
| A68C U116A A119U C124U | -7.83 |
| G71C C97U G117C | -5.75 |
| G71A U130C | 0.53 |
| A66U U130G | -1.71 |
| G71C C73U C79G A90U | -6.83 |

| Variant | polymerase ribozyme fitness (log ratio) |
| --- | --- |
| G71A A74C A105C | -5.44 |
| G69U G110U | 0.852 |
| G69U G110C | -2.61 |
| G69A G93A A95C A121U | -3.33 |
| G69C C114U | -1.95 |
| C70G C94A | -3.62 |
| G71A C124U | 1.42 |
| C70G C123G | -0.392 |
| G69A G128C | -5.29 |
| C70G G135A | -3.36 |
| G69A C73G G120U | -5.64 |
| C70U C101A | -1.9 |
| G71C U112C | -0.487 |
| A66G C72A C79A A84U | -4.61 |
| C70A C94U A100C | -2.44 |
| G69C G120U C123G | -0.319 |
| C70G C85A C123U U130A U133C | -3.14 |
| G69C U106A G120U G128U | -2.78 |
| C70U A83U | -0.296 |
| G69C C88A | -2.15 |
| C70U A90C U92C C102A G120C U132A | -5.71 |
| A68G C86U | -2.68 |
| C70A C79A | -3.11 |
| A66U A68G | -3.88 |

| Variant | polymerase ribozyme fitness (log ratio) |
| --- | --- |
| A66U C79U | -0.834 |
| A66U G93C C115U U116C | -5.96 |
| G69U C72U G117A | -0.708 |
| G69U C88A A90U | 0.178 |
| G71C C85A | -3.19 |
| G71C C85U | -2.23 |
| G71A C72G C114U | -4.69 |
| G71A C73U | -2.15 |
| G69U C123A | 1.34 |
| A68U C97A G120C | -6.59 |
| G69U U81G U116C | -1.49 |
| G71C C114U G122A U129A | -4.82 |
| A66U C73U A83U A100U C123U U125G | -2.19 |
| G71U A91U U96C | -3.7 |
| G71A C79U A83G U129G | -3.32 |
| G71A C79G G127A | -3.33 |
| C70U C97U U106A G127U | -1.69 |
| G69A C89G | -5.32 |
| G71A G77A U78G | -4.6 |
| C70G C124U U130C | -0.523 |
| C70G U106A | -2.52 |
| U67G C80G G113A | -6.86 |
| G69A C86A C99U G110C | -6.84 |
| G71A U129G | -2.44 |

| Variant | polymerase ribozyme fitness (log ratio) |
| --- | --- |
| G71C A84G C104A U109G G117U C124A U130G | -5.84 |
| G69A G127C | -3.47 |
| C70G G127U | -3.25 |
| C70A U125A G128A | -3.04 |
| C70A G128U | -3.9 |
| G71A G117A | -1.44 |
| G71C G113A | -1.54 |
| G69U U130A | -0.136 |
| G69C C94A U112G C124G | -1.99 |
| C70G C79G C98U U109G U125A | -7.56 |
| G71U C80A | -5.28 |
| C70U U78C C80A C97U U129A | -5.63 |
| C70G A111C | -3.24 |
| C70G A111U | -5.55 |
| G69U C79G U109G | -2.86 |
| G71A C123A | -0.22 |
| C70A U78C C102U | -4.3 |
| G69A C79A | -3.99 |
| C70G A103U G120A A121C C123U | -5.54 |
| G69C A118G | -1.23 |
| G71C C124U | 0.16 |
| C70G C89U | -2.75 |
| G71U C72A C89A G117A | -5.63 |
| G71A U78G A84U | -2.58 |

| Variant | polymerase ribozyme fitness (log ratio) |
| --- | --- |
| G71C G110A | -2.2 |
| G69C U92A U109G | -6.72 |
| G69U U87A G127U U130A G135U | -2.93 |
| G71C U81G C97U U106A G120A | -3.76 |
| G71C U81C U129C U130A | -3.37 |
| G69U C88U | -0.366 |
| G69A U78G A118U | -1.62 |
| C70U C72G C115U G117A | -5.53 |
| G69U C104U | 0.349 |
| G69U A119G | 1.7 |
| G71U A103G | -5.01 |
| G71U A103C | -5.76 |
| A66C U129A | -2.92 |
| G69U C114U U133A | -1.47 |
| G71A C101A G113U | -5.02 |
| C70A C79A A91C G120U | -7.09 |
| G69U C82G | -1.46 |
| G69U C82U | -0.267 |
| G69U G107A | -3.34 |
| G71A A105U | -3.04 |
| G69U G128A | -1.19 |
| C70A C82A U92C | -3.72 |
| A66U C98U | -1.9 |
